Assays:
[1] = target: 3C8 iAb_(aff1) Fab (anti-OX40 clone 3C8 engrafted with the iAb_(aff1) residue set, expressed as a monomeric Fab)
[2] = target: 3C8 iAb_(aff1) Fab (anti-OX40 clone 3C8 engrafted with the iAb_(aff1) residue set, expressed as a monomeric Fab); test: AUC; sedimentation velocity; 3C8 iAb_(aff1) Fab at 0.6, 0.2 and 0.07 mg/ml in 25 mM histidine acetate pH 5.5, 150 mM NaCl; 20 °C, 50,000 RPM; global fit to a monomer-dimer equilibrium model (dimer to monomers)

OX40 agonism of the monomeric Fab in Jurkat OX40 NF-kB luciferase reporter cells; EC50 against the full-length iAb (aff1) IgG [1]: 100 fold | Kd [2]: 6.8 µM | stoichiometry N [2]: 2
B1: 3C8 iAb_(aff1) Fab (anti-OX40 clone 3C8 engrafted with the iAb_(aff1) residue set, expressed as a monomeric Fab) (Fab, V domains shown)
VH: EVQLVQSGAEVKKPGATVVVLCKASGYAFTNYLIEWVRQAPGQGLEWIGVINPGSGDTYYSEKFKGRVTLFADTSTSQAILILTSLRSEDTAVYYCARDRLDYWGQGTLVTVSS
VL: DIQMTQSPSSLSASVGDRVTITCHASQDISSYIVWYQQKPGKSFKGLIYHGTNLESGVPSRFSGSGSGTDFTLTISSLQPEDFATYYCVHYAQFPYTFGQGTKVEIK

— paper PMC10799922
